Common to all, as to experiment: fluorescence polarisation; TEAD4 (217-434) at 350 nM, carboxyfluorescein peptide probe at 25 nM; disruptors titrated 0-150 uM to the probe-TEAD complex; 25 C, 20 min
Conditions in all cases: both partners purified

Experiment [1] concerns the target YAP/TAZ-binding domain of human TEAD4 (217-434), acylation state not stated (human, UniProt Q15561 217-434).
Experiment [2] concerns the target T1, YAP/TAZ-binding domain of human TEAD4 (217-434), deacylated form (human, UniProt Q15561 217-434).
T1 construct: also called deacylated TEAD

In experiment [3] the target is T2, YAP/TAZ-binding domain of human TEAD4 (217-434), acylated form (human, UniProt Q15561 217-434, acylated).
T2 construct: also called acylated TEAD
T2 sequence (Q15561 217-434): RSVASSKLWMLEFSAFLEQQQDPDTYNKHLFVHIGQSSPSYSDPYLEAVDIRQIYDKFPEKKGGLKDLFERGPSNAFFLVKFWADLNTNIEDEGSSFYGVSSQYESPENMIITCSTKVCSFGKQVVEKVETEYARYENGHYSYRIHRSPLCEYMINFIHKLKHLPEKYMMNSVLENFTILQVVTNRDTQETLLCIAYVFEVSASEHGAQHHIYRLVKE

These results are taken from PMC9007350, “Aurintricarboxylic acid is a canonical disruptor of the TAZ-TEAD transcriptional complex” (PLoS ONE, 2022).

Ends that are not written are not given here.

Chain of YAP/TAZ-binding domain of human TEAD4 (217-434), acylation state not stated (Q15561 217-434): as above
T1 sequence (Q15561 217-434): as above

B1: Mouse Vgll1 (26-51) peptide probe, carboxyfluorescein-labelled (peptide, UniProt Q99NC0 26-51, looked up)
peptide: GSVIFTYFEGDINSMVDEHFSRALRN
modifications: also: carboxyfluorescein label, position not given here
notes: mouse Vgll1 residues 26-51; also called Vgll1 peptide probe
Consider B1, for which the binding result in experiment [1] was “binds”.

B2: Human YAP (61-100) peptide probe, carboxyfluorescein-labelled (peptide, UniProt P46937 61-100, looked up)
peptide: SETDLEALFNAVMNPKTANVPQTVPMRLRKLPDSFFKPPE
modifications: carboxyfluorescein label (position not given)
notes: human YAP (Yes-associated protein) residues 61-100; also called YAP peptide probe
With B2, the binding result in experiment [1] is listed as “binds”.

B3: Human TAZ (23-57) peptide probe, carboxyfluorescein-labelled (peptide, UniProt Q9GZV5 23-57, looked up)
peptide: DLDTDLEALFNSVMNPKPSSWRKKILPESFFKEPD
modifications: carboxyfluorescein label (position not given)
notes: human TAZ residues 23-57, UniProt Q9GZV5; also called TAZ peptide probe; TAZ probe
For the molecule B3, the binding result in experiment [2] and in experiment [3] was “binds” each time.
